B1: Chromodomain-helicase-DNA-binding protein 5, residues 411 to 463; numbered along this chain, Q8TDI0 (parent)
chain: EEDDHMEFCRVCKDGGELLCCDACPSSYHLHCLNPPLPEIPNGEWLCPRCTCP

± gives the uncertainty stated by the source.

Variants of B1 are the subject of the series. The series can be described thus: abundance fitness (aPCA) (normalised: wild type 0, dead -1); higher = more abundant; growth selection in yeast, the domain comes from the species named. Conditions: Homo sapiens.
On to C47Y, for which the abundance fitness is -0.929 ± 0.11.

With C47V, the abundance fitness was -0.808 ± 0.084.

For the variant C47W, the abundance fitness is -0.914 ± 0.067.

Take P53S: the abundance fitness is -0.153 ± 0.13.

On to P53L, for which the abundance fitness stood at 0.13 ± 0.15.

Consider P53A, for which the abundance fitness is -0.091 ± 0.14.

As to P53G, the abundance fitness was -0.097 ± 0.06.

P53T: the abundance fitness was -0.083 ± 0.16.

For P53R, the abundance fitness is -0.669 ± 0.29.

For R49A, the abundance fitness is -0.017 ± 0.056.

Consider R49N, for which the abundance fitness was determined as 0.013 ± 0.1.

For the variant R49W, the abundance fitness was -0.073 ± 0.064.

For R49E, the abundance fitness came out at 0.148 ± 0.054.

R49V: the abundance fitness was found to be 0.033 ± 0.044.

In the case of R49C, the abundance fitness came out at 0.021 ± 0.057.

Regarding R49Y, the abundance fitness was -0.088 ± 0.1.

On to R49M, for which the abundance fitness stood at 0.017 ± 0.067.

Take R49T: the abundance fitness amounted to 0.112 ± 0.069.

Take R49D: the abundance fitness was determined as 0.101 ± 0.049.

Regarding R49P, the abundance fitness is -0.106 ± 0.063.

Turning to R49I, the abundance fitness was -0.305 ± 0.11.

R49H: the abundance fitness is -0.223 ± 0.11.

R49F: the abundance fitness was found to be 0.011 ± 0.1.

For the variant R49S, the abundance fitness amounted to 0.04 ± 0.055.

Turning to R49L, the abundance fitness is -0.094 ± 0.048.

Regarding R49Q, the abundance fitness stood at 0.156 ± 0.069.

As to T51H, the abundance fitness was -0.228 ± 0.13.

With T51P, the abundance fitness is -0.078 ± 0.089.

As for T51N, the abundance fitness worked out at 0.018 ± 0.051.

In the case of T51M, the abundance fitness was -0.296 ± 0.095.

For T51E, the abundance fitness is -0.027 ± 0.063.

For the variant T51G, the abundance fitness was -0.052 ± 0.063.

For T51Y, the abundance fitness is -0.161 ± 0.097.

In the case of T51Q, the abundance fitness was 0.116 ± 0.092.

For the variant T51A, the abundance fitness was -0.061 ± 0.046.

Regarding T51W, the abundance fitness is -0.346 ± 0.075.

In the case of T51F, the abundance fitness is -0.142 ± 0.12.

With T51K, the abundance fitness was 0.049 ± 0.089.

With T51S, the abundance fitness is -0.089 ± 0.046.

As for T51C, the abundance fitness worked out at 0.086 ± 0.083.

As to T51D, the abundance fitness was 0.202 ± 0.099.

Consider T51V, for which the abundance fitness is -0.084 ± 0.064.

Regarding T51R, the abundance fitness was -0.035 ± 0.053.

For P48T, the abundance fitness is -0.004 ± 0.092.

For P48S, the abundance fitness is -0.025 ± 0.071.

As for P48K, the abundance fitness is -0.419 ± 0.14.

Consider P48Q, for which the abundance fitness is -0.09 ± 0.079.

On to P48M, for which the abundance fitness is -0.389 ± 0.09.

P48L: the abundance fitness was -0.564 ± 0.1.

Turning to P48N, the abundance fitness is -0.106 ± 0.12.

As for P48W, the abundance fitness was -0.412 ± 0.12.

As to P48F, the abundance fitness was determined as 0.31 ± 0.12.

For P48D, the abundance fitness was found to be 0.212 ± 0.11.

As to P48H, the abundance fitness turned out to be 0.014 ± 0.13.

In the case of P48Y, the abundance fitness was -0.149 ± 0.059.

For the variant P48E, the abundance fitness came out at 0.177 ± 0.11.

In the case of P48C, the abundance fitness turned out to be 0.023 ± 0.12.

On to P48I, for which the abundance fitness was -0.312 ± 0.24.

Consider P48A, for which the abundance fitness was -0.27 ± 0.085.

Turning to P48V, the abundance fitness was -0.24 ± 0.075.

As to C50H, the abundance fitness amounted to 0.008 ± 0.058.

Turning to C50I, the abundance fitness is -0.751 ± 0.059.

As to C50Y, the abundance fitness is -0.568 ± 0.11.

As for C50K, the abundance fitness is -0.598 ± 0.065.

As for C50T, the abundance fitness was -0.74 ± 0.064.

As to C50M, the abundance fitness was -0.77 ± 0.065.

C50R: the abundance fitness was -0.686 ± 0.049.

Turning to C50P, the abundance fitness is -0.517 ± 0.052.

In the case of C50S, the abundance fitness was -0.702 ± 0.053.

In the case of C50F, the abundance fitness was -0.756 ± 0.093.

Regarding C50D, the abundance fitness is -0.4 ± 0.062.

The values are drawn from the Human Domainome abundance scans (Beltran et al. 2025).
